{"source": "the DeepSol protein solubility set"}
{"experiment": "soluble on expression in E. coli; label from the status in PepcDB or PDB records"}
{"sequence": "MCIAIPGKMTAIVDENTATIDMGGICRDVNMALMGGAEESMIGKHFLVHVGYAISEISEEESEETMRLLKIMAGLEEIDSFENESQ", "soluble on expression in E. coli": "not soluble"}
{"sequence": "MCIAIPGRIERIDYPIAIVDFKGLKKEVRIDLLENPQIGDYVLVHVGMAIQKVDEEEAKKTWELLERVADETGNQAF", "soluble on expression in E. coli": "not soluble"}
{"sequence": "MCMMSKVVSKMKSFLGFDEFEDEDEVMEEEEVMEEEESFAPVLSSKKNGKVVNIHTANTAKLMITKPLVYDDATEICTALKNRKIVVINTTSLELRTAQRLIDFVGGACYALCGELQEVEKGVFIVSPSNVEVSNELKSELSNKGMFNWASKLEHHHHHH", "soluble on expression in E. coli": "not soluble"}
{"sequence": "MCNTPTYCDLGKAAKDVFNKGYGFGMVKIDLKTKSCSGVEFSTSGHAYTDTGKASGNLETKYKVCNYGLTFTQKWNTDNTLGTEISWENKLAEGLKLTLDTIFVPNTGKKSGKLKASYKRDCFSVGSNVDIDFSGPTIYGWAVLAFEGWLAGYQMSFDTAKSKLSQNNFALGYKAADFQLHTHVNDGTEFGGSIYQKVNEKIETSINLAWTAGSNNTRFGIAAKYMLDCRTSLSAKVNNASLIGLGYTQTLRPGVKLTLSALIDGKNFSAGGHKVGLGFELEALEHHHHHH", "soluble on expression in E. coli": "soluble"}
{"sequence": "MCVRLENENFKAELSESGAELTSLKSKNTDNEYIWTANSSYWGRHAPILFPIVGKVKDNKYRIADKVYNLSQHGFARDMEFEVEDNASDRAVFKLVWNDETLEKYPYKFELRVIYVLKDSTVDVTYNVKNVDDKDIFFSIGAHPGFNCPVIGKQSENDELQFEDYYIEFEKRETTGVVKLNSSNLLSRNTSPFLYASNILNLSEKLFKQGALILKDLDSTSISLKNDKNTTSVTVSFEGFPYVGLWSKPEGAPFVCIEPWFGHADYEDFNGDFREKEDGLKLEVGKEFECTYSITIGELEHHHHHH", "soluble on expression in E. coli": "soluble"}
{"sequence": "MDAEPSTPKQTEQEPSALSSADQVTNEPMESIIRPSILDSNSKMGNKQEDEDRLKKDSGPSTSNQAEQDPSKSADQFVTLSRPTTLGFSPTFESLQNNQEDTKQSTRLLNEDQDRDTLLKKHVDSLYALSERCIIFAGVLNQFLPTEKRRSKTDFLTENMLAALLSELITQIEVSDLRAKANPAVGKQEGDRCKELVSEKSCIEESLRNFREFAKEDSKTDTSSKLDPPNLNTLLYQLEGIEKIMNSIQTTLEANNFNDSENGSNEVTPNKSQLEGDSLKEVPSEESQIVDSAHDGDSRKEGESEVSEMDNVALDKDLPEETETDKTLVDEIPLEDLDKEPLDENPLEGSPGPAQNMTERNIRKRPNSRHDNVSPSKLQKV", "soluble on expression in E. coli": "soluble"}
{"sequence": "MDCLNIEELTRIIIKEIRDYEEKEGVKSRRKIEVPINVSARHVHLSEEHMEALFGKGYTLTPIRDLMQPGEFAAKETVIIVGPKGILPSVRILGPARKRTQVEVSKTDCYTLGIEAQVRDSGNHEGTPGCIIVGPMGAVKLEEGVIVAMRHVHMPKNLAEKIGIKDKNLLKVEVGEERKLIFENVLARVSEKFVLEMHVDTDEANAAGIKNQAKGYILL", "soluble on expression in E. coli": "not soluble"}
{"sequence": "MDCVMKGLNKITCCLLAALLMPCAGHAENEQYGANFNNADIRQFVEIVGQHLGKTILIDPSVQGTISVRSNDTFSQQEYYQFFLSILDLYGYSVITLDNGFLKVVRSANVKTSPGMIADSSRPGVGDELVTRIVPLENVPARDLAPLLRQMMDAGSVGNVVHYEPSNVLILTGRASTINKLIEVIKRVDVIGTEKQQIIHLEYASAEDLAEILNQLISESHGKSQMPALLSAKIVADKRTNSLIISGPEKARQRITSLLKSLDVEESEEGNTRVYYLKYAKATNLVEVLTGVSEKLKDEKGNARKPSSSGAMDNVAITADEQTNSLVITADQSVQEKLATVIARLDIRRAQVLVEAIIVEVQDGNGLNLGVQWANKNVGAQQFTNTGLPIFNAAQGVADYKKNGGITSANPAWDMFSAYNGMAAGFFNGDWGVLLTALASNNKNDILATPSIVTLDNKLASFNVGQDVPVLSGSQTTSGDNVFNTVERKTVGTKLKVTPQVNEGDAVLLEIEQEVSSVDSSSNSTLGPTFNTRTIQNAVLVKTGETVVLGGLLDDFSKEQVSKVPLLGDIPLVGQLFRYTSTERAKRNLMVFIRPTIIRDDDVYRSLSKEKYTRYRQEQQQRIDGKSKALVGSEDLPVLDENTFNSHAPAPSSRLEHHHHHH", "soluble on expression in E. coli": "not soluble"}
{"sequence": "MDDLIELEISKTQCIRIYLPCKKEDLDFFDCVTIEYLKEQTEYILYYKDLSGAAIISLKELLEKALNFKLQIENEYKDKGIGYYHSIYTNNIYANKLQTAGSQDLIDPTKDFLVWSTLGPTSIGTFIYNDQDKIYIEISPLYEWFNHIFDDILEEYNEVKDEDASFDDFLNNYKPIDIVAIDRKVAEKWLEFCCEMIEILKANDKKQLK", "soluble on expression in E. coli": "not soluble"}
{"sequence": "MDDQGCPRCKTTKYRNPSLKLMVNVCGHTLCESCVDLLFVRGAGNCPECGTPLRKSNFRVQLFEDPTVDKEVEIRKKVLKIYNKREEDFPSLREYNDFLEEVEEIVFNLTNNVDLDNTKKKMEIYQKENKDVIQKNKLKLTREQEELEEALEVERQENEQRRLFIQKEEQLQQILKRKNKQAFLDELESSDLPVALLLAQHKDRSTQLEMQLEKPKPVKPVTFSTGIKMGQHISLAPIHKLEEALYEYQPLQIETYGPHVPELEMLGRLGYLNHVRAASPQDLAGGYTSSLACHRALQDAFSGLFWQPS", "soluble on expression in E. coli": "soluble"}
{"sequence": "MDDYKRILITKILKNEVTEALGCTEVGLIGYAVSLCNISDPFSIEKIELTLNNGSFKNAYAVGVPNTKKYGILPAVVGGLLGDHKNKLLVFNGIKYSQKLEDFIKERLKIRVINSPLYCGVKIKDNSGNTFESLIKDNHLNVVIPKINNKLISEINGSEKEEYKNLELLDFLEYIDEIPEEIIQLVEKTIYTNNNLIKGDFLNFGNDCLSNMVNKTTSACNTRMIGENMPAMSVAKSGNMGIMATLPIIAYDYSNEQNQEKLIKSILLSVLVTIYATYKSSYLSSMCGCVSKGGMGAVIGLCYYKNGKNIKKLDSAARTFTANLPGIICDGGKVGCALKLASGCFAAYSSLFVDISYENGIVGKNFKECVENISEISKIMGDLDSDIVKIMSKKEI", "soluble on expression in E. coli": "not soluble"}
{"sequence": "MDEEERTSSRGWMREFKYPSNLRDITEEARISLSSVAHFDELLHESSELAWRTNMSPPHRALFTFSKKTDISYVMLFLDYSRDESYCPQEVRIDLGDGTNDWWLKMYRRVDQPKGWVKIPIHDAFGNPLRVMSLQMTIMKNHEKGRDCVVRHFRVLGPFRSRYDSMNRMILGPSAVLEARPGTEPIKDAIMNHYQSMR", "soluble on expression in E. coli": "not soluble"}
{"sequence": "MDEIEKNNGEIIIYRTEDGRTQLEVRLENENVWLSQQQMSELFQTSRTNIVEHIKHIFEEGELEENSTCQIFRQVRIEGTRKVERSIPFYNLDMIISLGYRVKSRVATHFRRWATERLKEYLIKGFAMDDQRLKEIGGGGYWYELLNRIRDIRSSEKVLYRQVLDLYATSVDYDPKADESIRFFKIVQNKLHYAAHGHTAAEVIFERADAEKPFMGLATFPGEQPRKEDVLIAKNYLNEKELKILNNLVSGYFDFAEIQAIKRSPMYMSDYIHHLDLILSTTGEQVLQNAGTISHEQAKQKALGEYRKYHVKTLSPVEEAYFDSIKKLTAETKKKKKK", "soluble on expression in E. coli": "not soluble"}
{"sequence": "MDEYQQTIRALSDRIVVAQTPIRILDAVKWDDTVRKNFLAAKGKALPAVDRAYYENRPLGFDSVALKQEFQNIERDVTRQLGQFNPVGQIMRRMCREYRMVVRMLEARGTPDFGLISQELYGAASDAFHAGDPTLADLGLMLSDYLNNIAGRGDLKDEPKILTAKDAVSLLQSRLNRVFGEAEETIRVFESDGIVADAAAGADYIKIRTDAMFNERDVRALEVHEGLVHVGTTLNGQNQPICTFLSKGPPSSTVTQEGLAILMEVIAFASYPSRLRKLTNRTRAIHMAEQGADFLQVFEFYREQGFGMSESYGNASRVFRGSVPDGLPFTKDLSYLKGFIMVYNYIQLAVRKGKLEQVPLLFCGKTTLEDMRTLRQLVDEGLVVAPKYLPEQFRDMNALSAWMCFSNFLNHLSLDRIEADYSNILLEHHHHHH", "soluble on expression in E. coli": "soluble"}
{"sequence": "MDFKDILRQLSERIEKLRDNLQTEEATKNALIMPFIQAMGYDVFNPLEVIPEFTCDIGTKKGEKIDYAIMRDNEPIILIECKHWRDTLTLADNQLLRYFHVSSAKFGMLTNGIIYRFYTDLDQANKMDEKPFLEVNMLDLRDNQIEELKQFHKSYFDVDKILSTASELKYMKELKDLILAEMNEPSEQFVRMLAKQVYDGIITAKIFEQFKDLTQKSFKSVINDLITARFKTVMDKSKEVAASEEQSQEQDDSNEPLVVTTEAEMEAYMIVKGILRKYINIDRIASRDTQSYFSVLLDDNNRKPICRFYFNTANKYLATFEEGKKEVKTLLNSLDDLFMHEKSIAKSLALYVDTEESALIVKSKE", "soluble on expression in E. coli": "soluble"}
{"sequence": "MDFLERLKSLWPDNAKPADFYNKIDMSASGFSRVWKDGAIPTADYLIKIQEVTGCDLNWLLTGQGSPYMNKGQAVEVRTHTDGTATDTLGNP", "soluble on expression in E. coli": "not soluble"}
{"sequence": "MDFTIPLQLQSNTPIYLQIYEYIKAEIIQGTISVGTRLPSHRNLASQLNISRITVESAYQQLLAEGYAESKPKRGIFVANFDIDIIPNKKRNAAKKTNNLIEEKFEYDCSQGLIDQNAFPITNWKRALQESILIYENALFAKEDPQGEFALREHISTYLYHSRGVHSSPDQIVIGAGTQPLLWLLLQLLGPTKEYGIENPGFHRIHAIIKSCDRQIHPIPLDEKGIDISSLYNTNSNVAYVTPSHQFPLGIIMPLSRRLELLKWANDCNGYIIEDDYDGEFRYAGKPIPSLQSLDSNERVIYMGTFSKSFLPSLRMGYVVLPPHLLKTYQELHGIFKQTVATIQQLAFANFIQSGNWERHLNRSRTLYKRKHHTLVKSIMKEMGANVQILGEQSGLHIVLCVNNSMNENELIESAKKQSVKLYPLSPYDFVNDLRKESYVLLGFGSIPENKIETLATLLKDAWFPSCKETC", "soluble on expression in E. coli": "not soluble"}
{"sequence": "MDFVSEMNKILQMELEQFKEFIQKKLEEDKNYLEKLFWLPNGSQMTVLNYLIEQYSEPKLGIDDANRDLLAKIDFVLHEAKDVNVGEPLHQAIVAGKISLALHLLGVDENNFTPGESEKTDVLSILSKVRKKIEESFNHVKRCFFDVDKRDGYGRTLLSLALDAKRQELLIAILARNPIVHATTLRSSAYVPFQPIHQAVVLDYAEGITLLASMGAQLTNPLGSMRDTPVILAARLGKINALAALLELPTQSLSLESENNHLFEDKQTGHTAVEELCERMANENDKADALRGIAMLICRGAEPPRNEKMRNLLSSNRVAFLKAVSTYLADKPQLVDAFVERCHLRESALHNIVYADHSWGSSIRHLLGVPSEAALIVEELVTRKYSDPSFASENVSSLSTTATENLRSERNPLKLYAEFVRRYTQAYDSQMITNRWSTMRWMIAEGNCDWDTVVRYSKNHPTSRTRIVLNEMFNPIPRVHEDIESQQSSPRVVLK", "soluble on expression in E. coli": "not soluble"}
{"sequence": "MDFWPEFMATSWGREFVAGGFGGVAGIISGYPLDTLRIRQQQSSKSGSAFSILRRMLAIEGPSSLYRGMAAPLASVTFQNAMVFQIYAIFSRSFDSSVPLVEPPSYRGVALGGVATGAVQSLLLTPVELIKIRLQLQQTKSGPITLAKSILRRQGLQGLYRGLTITVLRDAPAHGLYFWTYEYVRERLHPGCRKTGQENLRTMLVAGGLAGVASWVACYPLDVVKTRLQQGHGAYEGIADCFRKSVKQEGYTVLWRGLGTAVARAFVVNGAIFAAYEVALRCLFNQSPSPDIVTGD", "soluble on expression in E. coli": "soluble"}
{"sequence": "MDGALLIDKPKGITSTEVVERVKEKLKARKAGHTGTLDPIATGLLIILINKATRFSQFFIGMPKTYRFTVKFGAETDTYDAQGKVVETYEGELNCDKLKEVLNEFRGEILQTPPPFSAKKIKGRRAYELARKGKKVELKPVKITVYSLELLSCNPREKEAEFLAEISSGGYVRSLAYDIGKKLGIGGYMKELRRLKIDEISVEEAVSLEEFLSSENPEEYVLPVDTLFRVIPEVRLNTFEAGKILQGKRILIKNYDYEGLVKIYEDSKFIGIGELKGGVLSPKRLLV", "soluble on expression in E. coli": "soluble"}
